In article PMC6953194:

Tests used:
Assay in all cases: SPR
[1] = molecular target: VRC01 expressed in the ΔXT/FT N. benthamiana plant line (VRC01ΔXF) (human)
[2] = molecular target: VRC01 co‐expressed with human β1,4‐galactosyltransferase in the ΔXT/FT plant line (VRC01Gal) (human)
[3] = molecular target: VRC01 expressed transiently in WT N. benthamiana (VRC01WT) (human)
[4] = molecular target: VRC01 antibody derived from HEK cells (VRC01HEK) (human)
VRC01 antibody derived from HEK cells (VRC01HEK) (human), sequence (light, as listed by the source, chain 2 of 2, other chains not shown): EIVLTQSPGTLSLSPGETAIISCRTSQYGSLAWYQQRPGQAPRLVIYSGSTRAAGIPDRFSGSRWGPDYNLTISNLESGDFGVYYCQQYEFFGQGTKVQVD

VRC01 co‐expressed with human β1,4‐galactosyltransferase in the ΔXT/FT plant line (VRC01Gal) (human), sequence (light, as listed by the source, chain 2 of 2, other chains not shown): as above
VRC01 expressed in the ΔXT/FT N. benthamiana plant line (VRC01ΔXF) (human), sequence (light, as listed by the source, chain 2 of 2, other chains not shown): as above
VRC01 expressed transiently in WT N. benthamiana (VRC01WT) (human), sequence (light, as listed by the source, chain 2 of 2, other chains not shown): as above

B1: recombinant human FcγRIIa ectodomain, polymorphic variant R131 (receptor)
chain: QAAAPPKAVLKLEPPWINVLQEDSVTLTCQGARSPESDSIQWFHNGNLIPTHTQPSYRFKANNNDSGEYTCQTGQTSLSDPVHLTVLSEWLVLQTPHLEFQEGETIMLRCHSWKDKPLVKVTFFQNGKSQKFSRLDPTFSIPQANHSHSGDYHCTGNIGYTLFSSKPVTITVQVPSMGSSSPMG
modifications: not checked
- Kd [1]: 780 nM
- Kd [2]: 1500 nM
- Kd [3]: > 7000 nM
- Kd [4]: 937 nM
